Bridges are numbered along the chain shown (N, C = ends). Primed or numbered codes have the meaning given here. [ ]: non-standard residue; d: D form. Ygp(4) = Tyr with amino-capped PEG8 (O-(8x polyethylene glycol-amino)-tyrosine); Yn3(4) = Tyr with azide-capped PEG9 (O-(9x polyethylene glycol-azido)-tyrosine); PEG9″ = 9x polyethylene glycol spacer; PEG4′ = 4x polyethylene glycol; PEG9′ = 9x polyethylene glycol; hSer = N[C@@H](CCO)C(=O)O; Nle = CCCC[C@H](N)C(=O)O
Molecular target: IL-2Rβγ (CD122+, CD132+) on HEK-Blue IL-2Rβγ reporter cells (UniProt P14784)
Test: cell-based or functional assay

Sequence of IL-2Rβγ (CD122+, CD132+) on HEK-Blue IL-2Rβγ reporter cells (P14784 27-551 limits assumed, chain 1 of 2): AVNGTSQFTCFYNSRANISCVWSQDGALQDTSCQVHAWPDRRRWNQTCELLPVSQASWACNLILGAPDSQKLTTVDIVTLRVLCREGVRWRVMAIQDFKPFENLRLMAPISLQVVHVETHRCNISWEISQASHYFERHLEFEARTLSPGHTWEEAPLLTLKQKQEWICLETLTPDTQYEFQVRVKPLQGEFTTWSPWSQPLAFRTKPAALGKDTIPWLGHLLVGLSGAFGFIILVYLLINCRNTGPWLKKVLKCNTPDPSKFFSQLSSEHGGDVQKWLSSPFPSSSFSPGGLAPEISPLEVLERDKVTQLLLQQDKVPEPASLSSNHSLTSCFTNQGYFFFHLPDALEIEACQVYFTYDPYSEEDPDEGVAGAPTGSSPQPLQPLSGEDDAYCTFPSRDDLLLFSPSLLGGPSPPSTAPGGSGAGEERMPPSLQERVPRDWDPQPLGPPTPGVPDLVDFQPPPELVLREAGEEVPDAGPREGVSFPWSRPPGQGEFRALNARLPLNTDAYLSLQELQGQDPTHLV
Sequence of IL-2Rβγ (CD122+, CD132+) on HEK-Blue IL-2Rβγ reporter cells (P31785 23-369 limits assumed, chain 2 of 2, further chain): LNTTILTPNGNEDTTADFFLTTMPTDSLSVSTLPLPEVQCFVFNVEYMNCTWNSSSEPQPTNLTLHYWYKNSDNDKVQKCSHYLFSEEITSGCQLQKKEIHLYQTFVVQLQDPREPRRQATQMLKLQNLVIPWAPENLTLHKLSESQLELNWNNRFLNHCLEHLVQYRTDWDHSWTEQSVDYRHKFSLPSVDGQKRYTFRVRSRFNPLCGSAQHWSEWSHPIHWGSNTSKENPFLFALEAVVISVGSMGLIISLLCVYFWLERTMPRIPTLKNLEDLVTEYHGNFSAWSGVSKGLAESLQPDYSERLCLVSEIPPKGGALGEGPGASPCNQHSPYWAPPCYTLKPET

Binder	Average EC50 (nM), HEK-Blue IL-2R (CD122+, CD132+) Reporter Assay [nM]
CMP-154 (ligand, linker N-35 via PEG9′; not fully specified (N-terminus); ends not checked) PLGLAGAPTSSSTKKTQLQLEHLLLDLQ[Nle]ILNGIENYKNPKLTR[Nle]L[hSer][Yn3(4)]KF[Ygp(4)][Nle]PKKATELKHLQCLEEELKPLEEVL[hSer]LAQSKNFHLRPRDLISNINVIVLELKGSETTF[hSer]CEYADETATIVEFLNRWITFSQSIISTLT	0.106
CMP-152 (ligand, not fully specified; Nle, Hse, Yn3 (Tyr with azide-capped PEG9), Ygp (Tyr with amino-capped PEG8) as printed in Table 3; PEG9-PLGLAG on the N-terminus, cyclised through glutaryl to the side chain of Lys 32) PLGLAGAPTSSSTKKTQLQLEHLLLDLQXILNGINNYKNPKLTRXLXYKFYXPKKATELKHLQCLEEELKPLEEVLXLAQSKNFHLRPRDLISNINVIVLELKGSETTFXCEYADETATIVEFLNRWITFSQSIISTLT	0.0597
CMP-154, MMP2 cleaved (ligand, linker N-35 via PEG9′; not fully specified (N-terminus); ends not checked; also: cleavable peptide cut by MMP2, site not given here) PLGLAGAPTSSSTKKTQLQLEHLLLDLQ[Nle]ILNGIENYKNPKLTR[Nle]L[hSer][Yn3(4)]KF[Ygp(4)][Nle]PKKATELKHLQCLEEELKPLEEVL[hSer]LAQSKNFHLRPRDLISNINVIVLELKGSETTF[hSer]CEYADETATIVEFLNRWITFSQSIISTLT	0.0059
CMP-152, MMP2 cleaved (ligand, linker N-38 via glutaryl‑PEG9; not fully specified (N-terminus); ends not checked; also: cleavable peptide cut by MMP2, site not given here) PLGLAGAPTSSSTKKTQLQLEHLLLDLQ[Nle]ILNGINNYKNPKLTR[Nle]L[hSer][Yn3(4)]KF[Ygp(4)][Nle]PKKATELKHLQCLEEELKPLEEVL[hSer]LAQSKNFHLRPRDLISNINVIVLELKGSETTF[hSer]CEYADETATIVEFLNRWITFSQSIISTLT	0.0064

Results, then the binder that gave them:

Average EC50 (nM), HEK-Blue IL-2R (CD122+, CD132+) Reporter Assay [nM]	Binder
0.0071	CMP-159, MMP2 cleaved (ligand, linker N-28 via PEG4′; not fully specified (N-terminus); ends not checked; also: cut by MMP2 in the PLGLAG linker, site not given here, ring opened) PLGLAGAPTSSSTKKTQLQLEHLLLDLE[Nle]ILNGINNYKNPKLTR[Nle]L[hSer][Yn3(4)]KF[Ygp(4)][Nle]PKKATELKHLQCLEEELKPLEEVL[hSer]LAQSKNFHLRPRDLISNINVIVLELKGSETTF[hSer]CEYADETATIVEFLNRWITFSQSIISTLT
0.192	CMP-159 (ligand, linker N-28 via PEG4′; not fully specified (N-terminus); ends not checked) PLGLAGAPTSSSTKKTQLQLEHLLLDLE[Nle]ILNGINNYKNPKLTR[Nle]L[hSer][Yn3(4)]KF[Ygp(4)][Nle]PKKATELKHLQCLEEELKPLEEVL[hSer]LAQSKNFHLRPRDLISNINVIVLELKGSETTF[hSer]CEYADETATIVEFLNRWITFSQSIISTLT
0.168	CMP-161 (ligand, linker N-32 via PEG9″; not fully specified (N-terminus); ends not checked) PLGLAGAPTSSSTKKTQLQLEHLLLDLQ[Nle]ILEGINNYKNPKLTR[Nle]L[hSer][Yn3(4)]KF[Ygp(4)][Nle]PKKATELKHLQCLEEELKPLEEVL[hSer]LAQSKNFHLRPRDLISNINVIVLELKGSETTF[hSer]CEYADETATIVEFLNRWITFSQSIISTLT
0.0118	CMP-161, MMP2 cleaved (ligand, not fully specified (N-terminus, bridges); ends and bridges not checked; also: cut by MMP2 in the PLGLAG linker, site not given here, ring opened) PLGLAGAPTSSSTKKTQLQLEHLLLDLQ[Nle]ILEGINNYKNPKLTR[Nle]L[hSer][Yn3(4)]KF[Ygp(4)][Nle]PKKATELKHLQCLEEELKPLEEVL[hSer]LAQSKNFHLRPRDLISNINVIVLELKGSETTF[hSer]CEYADETATIVEFLNRWITFSQSIISTLT

— patent US20240376170A1
